Experimental data published in paper PMC6842113.

Molecular target: PSD-95 PDZ1 mutant (ED6N) (UniProt P78352)
Test: ITC

Sequence of PSD-95 PDZ1 mutant (ED6N) (P78352 60-151, change not shown): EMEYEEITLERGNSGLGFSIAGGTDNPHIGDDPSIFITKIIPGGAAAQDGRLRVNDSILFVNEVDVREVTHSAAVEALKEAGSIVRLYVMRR

B1: Stg_CT WT (domain or fragment)
chain: DRHKQLRATARATDYLQASAITRIPSYRYRYQRRSRSSSRSTEPSHSRDASPVGVKGFNTLPSTEISMYTLSRDPLKAATTPTATYNSDRDNSFLQVHNCIQKDSKDSLHANTANRRTTPV
- fold weakening of binding against PDZ1 WT: 8 fold
